Data: patent publication US20240279318A1 (NANJING LEGEND BIOTECH, published 2024)
Substitutions are numbered along the chain they refer to. Where two headings read alike, the source gives them in different places.

B1: HD102E (scFv)
scFv: QSALTQPRSVSGSPGQSVTISCAGTSSDVGSENYVSWYQQHPGKAPKLMIYQVNKRASGVPDRFSGSKSGNTASLTISGLQAEDEADYYCASYRSSDHNIVFGGGTKLTVLGGGGSGGGGSGGGGSEVQLVESGGGLVQPGGSLRLSCAASGFTFSSYAMSWVRQAPGKGLEWVSTINSGTGSPYYADSVKGRFTISRDNSKNTLYLQMNSLRAEDTAVYYCAKNFFEGSWFLGPPAMDYWGQGTLVTVSSHHHHHH
notes: AS170036 VL1VH1 scFv mutein
B2: HF101W (scFv)
scFv: B1 scFv with F227W, E228D
notes: AS170036 VL1VH1 scFv mutein
B3: HG56L (scFv)
scFv: B1 scFv with G182L, E228D
notes: AS170036 VL1VH1 scFv mutein
B4: LY93H (scFv)
scFv: B1 scFv with Y93H, E228D
notes: AS170036 VL1VH1 scFv mutein
B5: LY34T (scFv)
scFv: B1 scFv with Y34T, E228D
notes: AS170036 VL1VH1 scFv mutein
B6: LY93D (scFv)
scFv: B1 scFv with Y93D, E228D
notes: AS170036 VL1VH1 scFv mutein
B7: LY93N (scFv)
scFv: B1 scFv with Y93N, E228D
notes: AS170036 VL1VH1 scFv mutein
B8: HG56R (scFv)
scFv: B1 scFv with G182R, E228D
notes: AS170036 VL1VH1 scFv mutein
B9: HG56H (scFv)
scFv: B1 scFv with G182H, E228D
notes: AS170036 VL1VH1 scFv mutein
B10: LY93T (scFv)
scFv: B1 scFv with Y93T, E228D
notes: AS170036 VL1VH1 scFv mutein
B11: HG56K (scFv)
scFv: B1 scFv with G182K, E228D
notes: AS170036 VL1VH1 scFv mutein
B12: HG56A (scFv)
scFv: B1 scFv with G182A, E228D
notes: AS170036 VL1VH1 scFv mutein
B13: HG56E (scFv)
scFv: B1 scFv with G182E, E228D
notes: AS170036 VL1VH1 scFv mutein
B14: HG56F (scFv)
scFv: B1 scFv with G182F, E228D
notes: AS170036 VL1VH1 scFv mutein; also called AS170036 VL1VH1-VHG56F
B15: HG56D (scFv)
scFv: B1 scFv with G182D, E228D
notes: AS170036 VL1VH1 scFv mutein
B16: HF101Y (scFv)
scFv: B1 scFv with F227Y, E228D
notes: AS170036 VL1VH1 scFv mutein
B17: LY34V (scFv)
scFv: B1 scFv with Y34V, E228D
notes: AS170036 VL1VH1 scFv mutein
B18: HG56M (scFv)
scFv: B1 scFv with G182M, E228D
notes: AS170036 VL1VH1 scFv mutein
B19: HG56N (scFv)
scFv: B1 scFv with G182N, E228D
notes: AS170036 VL1VH1 scFv mutein; also called AS170036 VL1VH1-VHG56N
B20: HG56Q (scFv)
scFv: B1 scFv with G182Q, E228D
notes: AS170036 VL1VH1 scFv mutein

Tests used:
[1] = biological target: T1, AFP158/HLA-A*02:01 complex (human); assay: SPR, KD ratio to AS170036 VL1VH1;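 note: crude scFv captured on a sensor chip, peptide–HLA complex passed over at several concentrations, association then buffer dissociation, KD derived from on- and off-rates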
T1 construct: flowed over the chip in SPR; also called AFP158 pro
Procedure: (§1) The experiment was carried out as follows. The crude scFv protein were captured onto the sensorchip. Different concentrations (320, 160, 40 nM) of AFP158/HLA-A*02:01 complex flowed over the sensorchip surface, and were allowed to bind the antibody fragment for 100 s followed by injection of the running buffer to allow dissociation of the complex. On-rate (kd) and off-rate (kd) were calculated based on association and dissociation curve, and were used to estimate the equilibrium dissociation constant (KD).

[2] = biological target: T1, AFP158/HLA-A*02:01 complex; assay: SPR, scFv captured, pMHC in flow;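 note: complex injected at several concentrations over crude scFv, association then running-buffer dissociation, KD estimated from kinetic on- and off-rate constants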
[3] = biological target: T1, AFP158/HLA-A*02:01 complex; assay: SPR, KD ratio to AS170036 VL1VH1; remark: listed apart in the source;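 note: crude scFv captured on a sensor chip, peptide–HLA complex passed over at several concentrations, association then buffer dissociation, KD derived from on- and off-rates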
Procedure: as §1

[4] = biological target: T1, AFP158/HLA-A*02:01 complex; assay: SPR, scFv captured, pMHC in flow; remark: listed apart in the source;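 note: complex injected at several concentrations over crude scFv, association then running-buffer dissociation, KD estimated from kinetic on- and off-rate constants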
Procedure: as §1

| Binder | Affinity increase [1] [fold] | Kd [2] [nM] | Affinity increase [3] [fold] | Kd [4] [nM] |
| --- | --- | --- | --- | --- |
| B1 | 1.2 | 190 | – | – |
| B2 | 0.8 | 300 | – | – |
| B3 | 0.8 | 290 | – | – |
| B4 | – | – | 0.4 | 620 |
| B5 | – | – | 0.1 | 2200 |
| B6 | – | – | 0.2 | 1200 |
| B7 | – | – | 0.2 | 1400 |
| B8 | 0.8 | 300 | – | – |
| B9 | 1.5 | 150 | – | – |
| B10 | – | – | 0.3 | 840 |
| B11 | 0.7 | 350 | – | – |
| B12 | 1.4 | 160 | – | – |
| B13 | 1 | 240 | – | – |
| B14 | 2.3 | 98 | – | – |
| B15 | 1 | 230 | – | – |
| B16 | 1.1 | 210 | – | – |
| B17 | – | – | 0.3 | 740 |
| B18 | 1.7 | 130 | – | – |
| B19 | 2.5 | 92 | – | – |
| B20 | 1 | 240 | – | – |
